Data as given in paper PMC6182147.
Where two headings read alike, the source gives them in different places.

Experiments:
[1] = biological target: Clp-GST (L. enzymogenes Clp purified as GST-fusion) (Lysobacter enzymogenes) (UniProt Q7WZ07); experiment: MST
[2] = biological target: Clp-GST (L. enzymogenes Clp purified as GST-fusion) (Lysobacter enzymogenes) (UniProt Q7WZ07); experiment: MST; remark: listed apart in the source

Substance: LchP-PGE-MBP (cytoplasmic fragment of LchP, PAS+GGDEF+EAL domains, fused to maltose binding protein) (domain or fragment)
- Kd [1]: 1.42 nM
- Kd [2]: 7.18 nM
